IntAct's records for PubMed 31515488

B1: Cyclic AMP-dependent transcription factor ATF-4 (Homo sapiens), P18848 (parent)
chain: MTEMSFLSSEVLVGDLMSPFDQSGLGAEESLGLLDDYLEVAKHFKPHGFSSDKAKAGSSEWLAVDGLVSPSNNSKEDAFSGTDWMLEKMDLKEFDLDALLGIDDLETMPDDLLTTLDDTCDLFAPLVQETNKQPPQTVNPIGHLPESLTKPDQVAPFTFLQPLPLSPGVLSSTPDHSFSLELGSEVDITEGDRKPDYTAYVAMIPQCIKEEDTPSDNDSGICMSPESYLGSPQHSPSTRGSPNRSLPSPGVLCGSARPKPYDPPGEKMVAAKVKGEKLDKKLKKMEQNKTAATRYRQKKRAEQEALTGECKELEKKNEALKERADSLAKEIQYLKDLIEEVRKARGKKRVP
B2: Segment polarity protein dishevelled homolog DVL-2 (Homo sapiens), O14641 (parent)
chain: MAGSSTGGGGVGETKVIYHLDEEETPYLVKIPVPAERITLGDFKSVLQRPAGAKYFFKSMDQDFGVVKEEISDDNARLPCFNGRVVSWLVSSDNPQPEMAPPVHEPRAELAPPAPPLPPLPPERTSGIGDSRPPSFHPNVSSSHENLEPETETESVVSLRRERPRRRDSSEHGAGGHRTGGPSRLERHLAGYESSSTLMTSELESTSLGDSDEEDTMSRFSSSTEQSSASRLLKRHRRRRKQRPPRLERTSSFSSVTDSTMSLNIITVTLNMEKYNFLGISIVGQSNERGDGGIYIGSIMKGGAVAADGRIEPGDMLLQVNDMNFENMSNDDAVRVLRDIVHKPGPIVLTVAKCWDPSPQAYFTLPRNEPIQPIDPAAWVSHSAALTGTFPAYPGSSSMSTITSGSSLPDGCEGRGLSVHTDMASVTKAMAAPESGLEVRDRMWLKITIPNAFLGSDVVDWLYHHVEGFPERREARKYASGLLKAGLIRHTVNKITFSEQCYYVFGDLSGGCESYLVNLSLNDNDGSSGASDQDTLAPLPGATPWPLLPTFSYQYPAPHPYSPQPPPYHELSSYTYGGGSASSQHSEGSRSSGSTRSDGGAGRTGRPEERAPESKSGSGSESEPSSRGGSLRRGGEASGTSDGGPPPSRGSTGGAPNLRAHPGLHPYGPPPGMALPYNPMMVVMMPPPPPPVPPAVQPPGAPPVRDLGSVPPELTASRQSFHMAMGNPSEFFVDVM
partner: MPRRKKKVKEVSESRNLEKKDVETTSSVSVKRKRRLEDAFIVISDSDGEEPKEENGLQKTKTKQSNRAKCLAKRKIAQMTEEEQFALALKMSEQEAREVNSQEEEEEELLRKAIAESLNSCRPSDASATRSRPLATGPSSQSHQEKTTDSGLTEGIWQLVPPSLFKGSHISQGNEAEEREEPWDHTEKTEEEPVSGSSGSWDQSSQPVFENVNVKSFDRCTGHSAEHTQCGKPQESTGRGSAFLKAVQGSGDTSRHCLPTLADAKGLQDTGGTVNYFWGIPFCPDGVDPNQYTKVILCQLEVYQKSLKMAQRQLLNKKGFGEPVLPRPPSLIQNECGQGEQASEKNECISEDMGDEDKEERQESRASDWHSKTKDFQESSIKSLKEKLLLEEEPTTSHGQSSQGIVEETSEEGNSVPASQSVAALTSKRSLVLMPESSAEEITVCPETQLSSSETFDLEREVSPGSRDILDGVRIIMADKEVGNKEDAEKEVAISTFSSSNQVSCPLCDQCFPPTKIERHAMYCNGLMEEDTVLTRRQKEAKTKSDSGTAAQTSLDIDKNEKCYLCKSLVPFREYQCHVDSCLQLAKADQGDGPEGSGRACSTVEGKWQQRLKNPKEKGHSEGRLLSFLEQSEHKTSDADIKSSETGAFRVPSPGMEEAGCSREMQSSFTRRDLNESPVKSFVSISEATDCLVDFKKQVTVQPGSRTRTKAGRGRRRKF
B3: Tuftelin-interacting protein 11 (Homo sapiens), Q9UBB9 (parent)
chain: MSLSHLYRDGEGRIDDDDDERENFEITDWDLQNEFNPNRQRHWQTKEEATYGVWAERDSDDERPSFGGKRARDYSAPVNFISAGLKKGAAEEAELEDSDDEEKPVKQDDFPKDFGPRKLKTGGNFKPSQKGFAGGTKSFMDFGSWERHTKGIGQKLLQKMGYVPGRGLGKNAQGIINPIEAKQRKGKGAVGAYGSERTTQSMQDFPVVDSEEEAEEEFQKELSQWRKDPSGSKKKPKYSYKTVEELKAKGRISKKLTAPQKELSQVKVIDMTGREQKVYYSYSQISHKHNVPDDGLPLQSQQLPQSGKEAKAPGFALPELEHNLQLLIDLTEQEIIQNDRQLQYERDMVVNLFHELEKMTEVLDHEERVISNLSKVLEMVEECERRMQPDCSNPLTLDECARIFETLQDKYYEEYRMSDRVDLAVAIVYPLMKEYFKEWDPLKDCTYGTEIISKWKSLLENDQLLSHGGQDLSADAFHRLIWEVWMPFVRNIVTQWQPRNCDPMVDFLDSWVHIIPVWILDNILDQLIFPKLQKEVENWNPLTDTVPIHSWIHPWLPLMQARLEPLYSPIRSKLSSALQKWHPSDSSAKLILQPWKDVFTPGSWEAFMVKNIVPKLGMCLGELVINPHQQHMDAFYWVIDWEGMISVSSLVGLLEKHFFPKWLQVLCSWLSNSPNYEEITKWYLGWKSMFSDQVLAHPSVKDKFNEALDIMNRAVSSNVGAYMQPGARENIAYLTHTERRKDFQYEAMQERREAENMAQRGIGVAASSVPMNFKDLIETKAEEHNIVFMPVIGKRHEGKQLYTFGRIVIYIDRGVVFVQGEKTWVPTSLQSLIDMAK
partner: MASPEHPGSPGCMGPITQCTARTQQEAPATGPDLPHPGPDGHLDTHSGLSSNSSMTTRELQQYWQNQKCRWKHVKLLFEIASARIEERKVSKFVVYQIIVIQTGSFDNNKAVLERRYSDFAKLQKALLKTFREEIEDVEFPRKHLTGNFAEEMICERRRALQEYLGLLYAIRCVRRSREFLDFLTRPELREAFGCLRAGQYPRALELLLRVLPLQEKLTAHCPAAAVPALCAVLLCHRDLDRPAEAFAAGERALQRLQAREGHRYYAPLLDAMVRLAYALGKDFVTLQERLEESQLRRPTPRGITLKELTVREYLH
B4: Phospholipid scramblase 4 (Homo sapiens), Q9NRQ2 (parent)
chain: MSGVVPTAPEQPAGEMENQTKPPDPRPDAPPEYNSHFLPGPPGTAVPPPTGYPGGLPMGYYSPQQPSTFPLYQPVGGIHPVRYQPGKYPMPNQSVPITWMPGPTPMANCPPGLEYLVQLDNIHVLQHFEPLEMMTCFETNNRYDIKNNSDQMVYIVTEDTDDFTRNAYRTLRPFVLRVTDCMGREIMTMQRPFRCTCCCFCCPSARQELEVQCPPGVTIGFVAEHWNLCRAVYSIQNEKKENVMRVRGPCSTYGCGSDSVFEVKSLDGISNIGSIIRKWNGLLSAMADADHFDIHFPLDLDVKMKAMIFGACFLIDFMYFERSPPQRSR
partner: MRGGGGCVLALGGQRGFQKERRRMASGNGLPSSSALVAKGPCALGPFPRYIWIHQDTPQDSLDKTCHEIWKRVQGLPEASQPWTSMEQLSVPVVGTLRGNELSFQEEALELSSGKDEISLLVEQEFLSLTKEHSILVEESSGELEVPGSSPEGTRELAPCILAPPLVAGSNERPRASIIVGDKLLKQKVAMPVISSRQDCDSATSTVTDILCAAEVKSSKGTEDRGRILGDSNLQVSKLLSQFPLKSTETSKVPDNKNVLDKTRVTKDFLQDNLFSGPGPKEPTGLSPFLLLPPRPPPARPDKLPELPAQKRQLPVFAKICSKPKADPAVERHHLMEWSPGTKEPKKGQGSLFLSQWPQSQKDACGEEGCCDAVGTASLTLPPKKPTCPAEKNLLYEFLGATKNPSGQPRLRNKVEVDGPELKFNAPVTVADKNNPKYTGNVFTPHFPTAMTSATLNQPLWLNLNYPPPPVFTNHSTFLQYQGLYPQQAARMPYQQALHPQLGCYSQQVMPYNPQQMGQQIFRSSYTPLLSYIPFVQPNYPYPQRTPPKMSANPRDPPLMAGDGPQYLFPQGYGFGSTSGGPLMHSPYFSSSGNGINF
B5: Placental protein 13-like (Homo sapiens), Q8TCE9 (parent)
chain: MSSLPVPYTLPVSLPVGSCVIITGTPILTFVKDPQLEVNFYTGMDEDSDIAFQFRLHFGHPAIMNSCVFGIWRYEEKCYYLPFEDGKPFELCIYVRHKEYKVMVNGQRIYNFAHRFPPASVKMLQVFRDISLTRVLISD

Variants of: B1
Conditions: with ldoc1_human LDOC1, O95751
Sequence of ldoc1_human LDOC1, O95751 (O95751 whole entry): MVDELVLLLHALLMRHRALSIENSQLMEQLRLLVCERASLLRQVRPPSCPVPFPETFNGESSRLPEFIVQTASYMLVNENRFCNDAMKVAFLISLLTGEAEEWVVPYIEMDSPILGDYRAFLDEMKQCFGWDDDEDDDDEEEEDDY
A324V was tested, and the “effect of a mutation on the interaction” value was “with no effect”.

Variants of: B1
Conditions: with cc106_human CCDC106, Q9BWC9
Sequence of cc106_human CCDC106, Q9BWC9 (Q9BWC9 whole entry): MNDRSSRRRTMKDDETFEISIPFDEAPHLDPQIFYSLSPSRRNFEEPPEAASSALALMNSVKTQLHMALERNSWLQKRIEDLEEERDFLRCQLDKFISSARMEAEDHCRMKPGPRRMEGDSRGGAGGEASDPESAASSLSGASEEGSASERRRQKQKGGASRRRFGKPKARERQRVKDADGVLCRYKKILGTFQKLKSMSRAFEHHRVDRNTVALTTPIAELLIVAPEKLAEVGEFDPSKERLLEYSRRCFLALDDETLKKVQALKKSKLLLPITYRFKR
In the case of A324V, the “effect of a mutation on the interaction” value is reported as “with no effect”.

Variants of: B1
Conditions: with fbw1a_human BTRC
In the case of A324V, the “effect of a mutation on the interaction” value is reported as “with no effect”.

Variants of: B1
Conditions: with cc106_human CCDC106, Q9BWC9
Remark: another data set of the same source
For A324V, the “effect of a mutation on the interaction” value was “disrupting interaction strength”.

Variants of: B2
Conditions: with uimc1_human UIMC1, Q96RL1
With R415Q the “effect of a mutation on the interaction” value was “with no effect”.

Variants of: B3
Conditions: with snx20_human SNX20, Q7Z614
For R8Q, the “effect of a mutation on the interaction” value was “with no effect”. With S688L the “effect of a mutation on the interaction” value was “with no effect”.

Variants of: B4
Conditions: with ca094_human C1orf94, Q6P1W5
In the case of N34S, the “effect of a mutation on the interaction” value is reported as “with no effect”. A107S was tested, and the “effect of a mutation on the interaction” value was “with no effect”. I155V was tested, and the “effect of a mutation on the interaction” value was “with no effect”.

Variants of: B5
Conditions: with trim1_human MID2, Q9UJV3
Sequence of trim1_human MID2, Q9UJV3 (Q9UJV3 whole entry): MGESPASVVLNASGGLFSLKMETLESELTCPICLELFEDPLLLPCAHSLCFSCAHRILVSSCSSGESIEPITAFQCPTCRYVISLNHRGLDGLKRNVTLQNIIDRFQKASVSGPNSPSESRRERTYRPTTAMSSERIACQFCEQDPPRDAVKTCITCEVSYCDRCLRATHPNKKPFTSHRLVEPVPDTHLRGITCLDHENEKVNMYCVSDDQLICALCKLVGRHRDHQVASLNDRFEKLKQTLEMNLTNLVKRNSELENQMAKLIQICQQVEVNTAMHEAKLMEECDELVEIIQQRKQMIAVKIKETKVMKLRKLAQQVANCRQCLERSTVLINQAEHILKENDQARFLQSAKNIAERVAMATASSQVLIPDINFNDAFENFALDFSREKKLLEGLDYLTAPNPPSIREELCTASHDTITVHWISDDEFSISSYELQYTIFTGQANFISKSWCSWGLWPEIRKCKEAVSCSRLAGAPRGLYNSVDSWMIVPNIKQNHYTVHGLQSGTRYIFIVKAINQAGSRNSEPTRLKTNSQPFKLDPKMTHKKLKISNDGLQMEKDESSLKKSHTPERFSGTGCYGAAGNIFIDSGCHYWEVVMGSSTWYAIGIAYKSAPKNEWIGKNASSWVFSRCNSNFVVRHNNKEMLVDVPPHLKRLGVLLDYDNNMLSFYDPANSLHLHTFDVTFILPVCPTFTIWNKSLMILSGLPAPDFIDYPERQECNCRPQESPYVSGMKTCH
For M123T, the “effect of a mutation on the interaction” value was “disrupting interaction strength”.

Variants of: B5
Conditions: with ikzf3_human IKZF3, Q9UKT9
Sequence of ikzf3_human IKZF3, Q9UKT9 (Q9UKT9 whole entry): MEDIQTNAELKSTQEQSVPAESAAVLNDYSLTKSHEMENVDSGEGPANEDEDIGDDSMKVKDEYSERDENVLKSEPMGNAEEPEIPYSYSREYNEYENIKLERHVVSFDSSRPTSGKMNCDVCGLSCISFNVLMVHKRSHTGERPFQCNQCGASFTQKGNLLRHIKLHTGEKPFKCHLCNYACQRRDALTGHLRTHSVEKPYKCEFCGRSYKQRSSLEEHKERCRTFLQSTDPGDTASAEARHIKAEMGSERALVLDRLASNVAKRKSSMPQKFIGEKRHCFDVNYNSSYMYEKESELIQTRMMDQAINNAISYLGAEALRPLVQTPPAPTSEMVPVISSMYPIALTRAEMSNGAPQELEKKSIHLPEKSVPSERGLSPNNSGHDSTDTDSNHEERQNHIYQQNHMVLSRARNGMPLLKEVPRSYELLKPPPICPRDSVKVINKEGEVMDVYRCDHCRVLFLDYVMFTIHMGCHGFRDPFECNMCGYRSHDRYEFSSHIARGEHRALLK
For M123T, the “effect of a mutation on the interaction” value was “disrupting interaction strength”.

Variants of: B5
Conditions: with itf2_human TCF4, P15884
Sequence of itf2_human TCF4, P15884 (P15884 whole entry): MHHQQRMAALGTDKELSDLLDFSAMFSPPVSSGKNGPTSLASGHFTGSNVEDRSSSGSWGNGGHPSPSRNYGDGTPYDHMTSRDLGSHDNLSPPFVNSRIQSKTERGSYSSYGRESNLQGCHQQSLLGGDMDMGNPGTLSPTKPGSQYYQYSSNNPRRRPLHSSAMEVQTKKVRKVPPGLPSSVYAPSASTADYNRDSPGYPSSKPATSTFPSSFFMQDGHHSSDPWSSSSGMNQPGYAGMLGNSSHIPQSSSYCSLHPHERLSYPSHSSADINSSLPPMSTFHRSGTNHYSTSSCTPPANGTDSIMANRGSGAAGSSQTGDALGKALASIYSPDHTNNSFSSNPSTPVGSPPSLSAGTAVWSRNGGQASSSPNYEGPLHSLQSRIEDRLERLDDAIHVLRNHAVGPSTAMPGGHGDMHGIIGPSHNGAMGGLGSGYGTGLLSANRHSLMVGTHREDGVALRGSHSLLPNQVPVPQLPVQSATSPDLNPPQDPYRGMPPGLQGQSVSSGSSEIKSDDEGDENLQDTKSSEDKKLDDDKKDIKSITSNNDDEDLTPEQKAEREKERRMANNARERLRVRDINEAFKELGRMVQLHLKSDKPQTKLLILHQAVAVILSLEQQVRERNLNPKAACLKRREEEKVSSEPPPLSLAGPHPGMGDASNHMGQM
In the case of M123T, the “effect of a mutation on the interaction” value is reported as “disrupting interaction strength”.

Variants of: B5
Conditions: with gfap_human GFAP
In the case of M123T, the “effect of a mutation on the interaction” value is reported as “disrupting interaction strength”.
